{
  "source": "patent US20160319321",
  "proteins": {"B1": {"name": "bovine Enterokinase light chain variant (C112A, L134K, I135K) (protein)", "chain": "IVGGSDSREGAWPWVVALYFDDQQVCGASLVSRDWLVSAAHCVYGRNMEPSKWKAVLGLHMASNLTSPQIETRLIDQIVINPHYNKRRKNNDIAMMHLEMKVNYTDYIQPIALPEENQVFPPGRICSIAGWGAKKYQGSTADVLQEADVPLLSNEKCQQQMPEYNITENMVCAGYEAGGVDSCQGDSGGPLMCQENNRWLLAGVTSFGYQCALPNRPGVYARVPRFTEWIQSFLH"}},
  "key": {"[1]": {"biological_target": "T1, DVEPGQPLYDDDDK-[Arg34]GLP-1(9-37)", "T1 chain": "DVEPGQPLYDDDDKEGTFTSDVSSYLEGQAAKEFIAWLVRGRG"}, "[2]": {"biological_target": "T2, DVKEGQPLYDDDDK-[Arg34]GLP-1(9-37)", "T2 chain": "T1 chain with E3K, P4E"}, "[3]": {"biological_target": "T3, DVKPEQPLYDDDDK-[Arg34]GLP-1(9-37)", "T3 chain": "T1 chain with E3K, G5E"}, "[4]": {"biological_target": "T4, DVKPGQPLADEGDR-[Arg34]GLP-1(9-37)", "T4 chain": "T1 chain with E3K, Y9A, D11E, D12G, K14R"}, "[5]": {"biological_target": "T5, DVKPGQPLEDEGDR-[Arg34]GLP-1(9-37)", "T5 chain": "T1 chain with E3K, Y9E, D11E, D12G, K14R"}, "[6]": {"biological_target": "T6, DVKPGQPLYDDDDK-[Arg34]GLP-1(9-37)", "T6 chain": "T1 chain with E3K"}, "[7]": {"biological_target": "T7, Lys(Dnp)-DAGDR-HAEGT-Lys(Abz)amide", "T7 chain": "KDAGDRHAEGTK"}, "[8]": {"biological_target": "T8, Lys(Dnp)-DDGDR-HGEGT-Lys(Abz)amide", "T8 chain": "KDDGDRHGEGTK"}, "[9]": {"biological_target": "T9, Lys(Dnp)-DEGDR-EGTFT-Lys(Abz)amide", "T9 chain": "KDEGDREGTFTK"}, "[10]": {"biological_target": "T10, Lys(Dnp)-DEGDR-QGTFT-Lys(Abz)amide", "T10 chain": "KDEGDRQGTFTK"}, "[11]": {"biological_target": "T11, Lys(Dnp)-DGGDR-EGTFT-Lys(Abz)amide", "T11 chain": "KDGGDREGTFTK"}, "[12]": {"biological_target": "T12, Lys(Dnp)-DLGDR-HGTFT-Lys(Abz)amide", "T12 chain": "KDLGDRHGTFTK"}, "[13]": {"biological_target": "T13, Lys(Dnp)-DLGDR-QGTFT-Lys(Abz)amide", "T13 chain": "KDLGDRQGTFTK"}, "[14]": {"biological_target": "T14, Lys(Dnp)-DTGDR-HAEGT-Lys(Abz)amide", "T14 chain": "KDTGDRHAEGTK"}, "[15]": {"biological_target": "T15, Lys(Dnp)-DWGDR-HAEGT-Lys(Abz)amide", "T15 chain": "KDWGDRHAEGTK"}, "[16]": {"biological_target": "T16, Lys(Dnp)-DWGDR-HGEGT-Lys(Abz)amide", "T16 chain": "KDWGDRHGEGTK"}, "[17]": {"biological_target": "T17, Lys(Dnp)-EAGDR-EGTFT-Lys(Abz)amide", "T17 chain": "KEAGDREGTFTK"}, "[18]": {"biological_target": "T18, Lys(Dnp)-EAGDR-HAEGT-Lys(Abz)amide", "T18 chain": "KEAGDRHAEGTK"}, "[19]": {"biological_target": "T19, Lys(Dnp)-EDEGDR-HAEGT-Lys(Abz)amide", "T19 chain": "KEDEGDRHAEGTK"}, "[20]": {"biological_target": "T20, Lys(Dnp)-EDGDR-HAEGT-Lys(Abz)amide", "T20 chain": "KEDGDRHAEGTK"}, "[21]": {"biological_target": "T21, Lys(Dnp)-EEGDR-HGEGT-Lys(Abz)amide", "T21 chain": "KEEGDRHGEGTK"}, "[22]": {"biological_target": "T22, Lys(Dnp)-EFGDR-HAEGT-Lys(Abz)amide", "T22 chain": "KEFGDRHAEGTK"}, "[23]": {"biological_target": "T23, Lys(Dnp)-EGGDR-HGEGT-Lys(Abz)amide", "T23 chain": "KEGGDRHGEGTK"}, "[24]": {"biological_target": "T24, Lys(Dnp)-EHGDR-HGEGT-Lys(Abz)amide", "T24 chain": "KEHGDRHGEGTK"}, "[25]": {"biological_target": "T25, Lys(Dnp)-EQGDR-EGTFT-Lys(Abz)amide", "T25 chain": "KEQGDREGTFTK"}, "[26]": {"biological_target": "T26, Lys(Dnp)-ETGDR-HAEGT-Lys(Abz)amide", "T26 chain": "KETGDRHAEGTK"}, "[27]": {"biological_target": "T27, Lys(Dnp)-EWGDR-HAEGT-Lys(Abz)amide", "T27 chain": "KEWGDRHAEGTK"}, "[28]": {"biological_target": "T28, Lys(Dnp)-EYGDR-HAEGT-Lys(Abz)amide", "T28 chain": "KEYGDRHAEGTK"}, "[29]": {"biological_target": "T29, Lys(Dnp)-EYGDR-HGEGT-Lys(Abz)amide", "T29 chain": "KEYGDRHGEGTK"}, "[30]": {"biological_target": "T30, Lys(Dnp)-GDEGDR-HAEGT-Lys(Abz)amide", "T30 chain": "KGDEGDRHAEGTK"}, "[31]": {"biological_target": "T31, Lys(Dnp)-HDEGDR-HAEGT-Lys(Abz)amide", "T31 chain": "KHDEGDRHAEGTK"}, "[32]": {"biological_target": "T32, Lys(Dnp)-LDEGDR-HAEGT-Lys(Abz)amide", "T32 chain": "KLDEGDRHAEGTK"}, "[33]": {"biological_target": "T33, Lys(Dnp)-MDEGDR-HAEGT-Lys(Abz)amide", "T33 chain": "KMDEGDRHAEGTK"}, "[34]": {"biological_target": "T34, Lys(Dnp)-NYTDRHAEGT-Lys(Abz)amide", "T34 chain": "KNYTDRHAEGTK"}, "[35]": {"biological_target": "T35, Lys(Dnp)-PDEGDR-HAEGT-Lys(Abz)amide", "T35 chain": "KPDEGDRHAEGTK"}, "[36]": {"biological_target": "T36, Lys(Dnp)-QDEGDR-HAEGT-Lys(Abz)amide", "T36 chain": "KQDEGDRHAEGTK"}, "[37]": {"biological_target": "T37, Lys(Dnp)-QEGDR-HAEGT-Lys(Abz)amide", "T37 chain": "KQEGDRHAEGTK"}, "[38]": {"biological_target": "T38, Lys(Dnp)-SDEGDR-HAEGT-Lys(Abz)amide", "T38 chain": "KSDEGDRHAEGTK"}, "[39]": {"biological_target": "T39, Lys(Dnp)-SSGDRHAEGT-Lys(Abz)amide", "T39 chain": "KSSGDRHAEGTK"}, "[40]": {"biological_target": "T40, Lys(Dnp)-VDEGDR-HAEGT-Lys(Abz)amide", "T40 chain": "KVDEGDRHAEGTK"}, "[41]": {"biological_target": "T41, Lys(Dnp)-VIGDRHAEGT-Lys(Abz)amide", "T41 chain": "KVIGDRHAEGTK"}},
  "note": "Positions count from the first letter of the chain named. In names and notes the source's numbering stands.",
  "data": [
    {"protein": "B1", "values": [
      {"measurement": "Activity (%)", "setting": "[1]", "result": 203, "unit": "%"},
      {"measurement": "Activity (%)", "setting": "[2]", "result": 178, "unit": "%"},
      {"measurement": "Activity (%)", "setting": "[3]", "result": 167, "unit": "%"},
      {"measurement": "Activity (%)", "setting": "[4]", "result": 476, "unit": "%"},
      {"measurement": "Activity (%)", "setting": "[5]", "result": 653, "unit": "%"},
      {"measurement": "Activity (%)", "setting": "[6]", "result": 136, "unit": "%"},
      {"measurement": "Activity (%)", "setting": "[7]", "result": 496, "unit": "%"},
      {"measurement": "Activity (%)", "setting": "[8]", "result": 439, "unit": "%"},
      {"measurement": "Activity (%)", "setting": "[9]", "result": 890, "unit": "%"},
      {"measurement": "Activity (%)", "setting": "[10]", "result": 411, "unit": "%"},
      {"measurement": "Activity (%)", "setting": "[11]", "result": 322, "unit": "%"},
      {"measurement": "Activity (%)", "setting": "[12]", "result": 216, "unit": "%"},
      {"measurement": "Activity (%)", "setting": "[13]", "result": 222, "unit": "%"},
      {"measurement": "Activity (%)", "setting": "[14]", "result": 434, "unit": "%"},
      {"measurement": "Activity (%)", "setting": "[15]", "result": 513, "unit": "%"},
      {"measurement": "Activity (%)", "setting": "[16]", "result": 338, "unit": "%"},
      {"measurement": "Activity (%)", "setting": "[17]", "result": 355, "unit": "%"},
      {"measurement": "Activity (%)", "setting": "[18]", "result": 582, "unit": "%"},
      {"measurement": "Activity (%)", "setting": "[19]", "result": 159, "unit": "%"},
      {"measurement": "Activity (%)", "setting": "[20]", "result": 632, "unit": "%"},
      {"measurement": "Activity (%)", "setting": "[21]", "result": 641, "unit": "%"},
      {"measurement": "Activity (%)", "setting": "[22]", "result": 486, "unit": "%"},
      {"measurement": "Activity (%)", "setting": "[23]", "result": 279, "unit": "%"},
      {"measurement": "Activity (%)", "setting": "[24]", "result": 491, "unit": "%"},
      {"measurement": "Activity (%)", "setting": "[25]", "result": 442, "unit": "%"},
      {"measurement": "Activity (%)", "setting": "[26]", "result": 475, "unit": "%"},
      {"measurement": "Activity (%)", "setting": "[27]", "result": 456, "unit": "%"},
      {"measurement": "Activity (%)", "setting": "[28]", "result": 539, "unit": "%"},
      {"measurement": "Activity (%)", "setting": "[29]", "result": 338, "unit": "%"},
      {"measurement": "Activity (%)", "setting": "[30]", "result": 267, "unit": "%"},
      {"measurement": "Activity (%)", "setting": "[31]", "result": 204, "unit": "%"},
      {"measurement": "Activity (%)", "setting": "[32]", "result": 259, "unit": "%"},
      {"measurement": "Activity (%)", "setting": "[33]", "result": 209, "unit": "%"},
      {"measurement": "Activity (%)", "setting": "[34]", "result": 59, "unit": "%"},
      {"measurement": "Activity (%)", "setting": "[35]", "result": 194, "unit": "%"},
      {"measurement": "Activity (%)", "setting": "[36]", "result": 141, "unit": "%"},
      {"measurement": "Activity (%)", "setting": "[37]", "result": 551, "unit": "%"},
      {"measurement": "Activity (%)", "setting": "[38]", "result": 222, "unit": "%"},
      {"measurement": "Activity (%)", "setting": "[39]", "result": 191, "unit": "%"},
      {"measurement": "Activity (%)", "setting": "[40]", "result": 184, "unit": "%"},
      {"measurement": "Activity (%)", "setting": "[41]", "result": 68, "unit": "%"}
    ]}
  ]
}
